From article PMC2290880 (The Journal of Cell Biology, 1993)

Biological target: T1, Sec63p (Saccharomyces cerevisiae (endogenous in …, UniProt P14906 1-663))
T1 sequence (looked up): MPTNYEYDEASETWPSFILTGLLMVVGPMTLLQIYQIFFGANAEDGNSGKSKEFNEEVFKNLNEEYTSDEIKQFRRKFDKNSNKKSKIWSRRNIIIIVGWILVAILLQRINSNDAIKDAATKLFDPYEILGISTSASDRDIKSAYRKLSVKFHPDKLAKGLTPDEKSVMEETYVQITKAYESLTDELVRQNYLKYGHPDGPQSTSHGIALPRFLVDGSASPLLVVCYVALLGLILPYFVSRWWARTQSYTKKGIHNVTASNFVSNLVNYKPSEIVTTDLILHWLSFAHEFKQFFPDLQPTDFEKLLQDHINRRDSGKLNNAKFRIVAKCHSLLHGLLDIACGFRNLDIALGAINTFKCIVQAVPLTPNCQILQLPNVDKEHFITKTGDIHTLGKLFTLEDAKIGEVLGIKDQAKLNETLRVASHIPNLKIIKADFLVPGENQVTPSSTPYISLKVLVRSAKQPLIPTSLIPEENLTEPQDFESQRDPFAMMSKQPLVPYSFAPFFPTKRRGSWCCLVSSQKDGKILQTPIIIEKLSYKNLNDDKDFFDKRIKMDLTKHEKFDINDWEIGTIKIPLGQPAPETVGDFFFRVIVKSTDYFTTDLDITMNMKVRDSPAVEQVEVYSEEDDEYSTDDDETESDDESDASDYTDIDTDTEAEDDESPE
Experiment: co-elution on hydroxylapatite chromatography

B1: BiP/Kar2p (natural protein)
chain: not shown
stoichiometry N: 1.4 Sec63p per BiP
